Data reported in patent US20140213531A1.

Molecular target: Tryptase, from human lung (human) (UniProt Q15661)
Experiment: enzyme inhibition, pNA substrate

Chain of Tryptase, from human lung (human) (Q15661 31-275 limits assumed): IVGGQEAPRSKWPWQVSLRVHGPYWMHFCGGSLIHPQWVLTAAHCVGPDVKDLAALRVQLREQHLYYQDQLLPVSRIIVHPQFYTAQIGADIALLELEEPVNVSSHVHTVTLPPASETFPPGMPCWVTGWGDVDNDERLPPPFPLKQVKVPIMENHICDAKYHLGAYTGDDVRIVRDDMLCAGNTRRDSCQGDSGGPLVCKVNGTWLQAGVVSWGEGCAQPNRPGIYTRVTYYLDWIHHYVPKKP

B1: Example 93 (peptide)
peptide: XCTASIPPQCS
HELM: PEPTIDE1{[Nle].C.T.A.S.I.P.P.Q.C.S.[dP].P}$PEPTIDE1,PEPTIDE1,2:R3-10:R3|PEPTIDE1,PEPTIDE1,1:R1-13:R2$$$V2.0
SMILES: CCCC[C@@H]1NC(=O)[C@@H]2CCCN2C(=O)[C@H]2CCCN2C(=O)[C@H](CO)NC(=O)[C@@H]2CSSC[C@H](NC1=O)C(=O)N[C@@H]([C@@H](C)O)C(=O)N[C@@H](C)C(=O)N[C@@H](CO)C(=O)N[C@@H]([C@@H](C)CC)C(=O)N1CCC[C@H]1C(=O)N1CCC[C@H]1C(=O)N[C@@H](CCC(N)=O)C(=O)N2
% inhibition at 100 µM: 5.6%
